Results published in patent US20140314747A1, “PREDICTING RESPONSE TO EGFR INHIBITORS” (Genentech, Inc., priority 2013, published 2014).

Test system: mesenchyme free lung explants (lung epithelium in Matrigel)
Test: mesenchyme-free lung explant culture, growth and branching
Assay type: cell-based, mouse
Details: both LKB1 wt/wt and LKB1 MG/MG, presence and absence of NMPP1
Description: Pancreas and individual lobes of the lungs were dissected from embryos harvested from timed pregnancy setups. Embryonic explants were cultured on 12 mm Transwell® with 0.4 μm polyester membrane insert (Corning, Tewsbury, Mass.) at the air-liquid interface in DME media with 10% fetal calf serum, glutamine and penicillin-streptomycin. For longer-term cultures (>3 days), media was changed daily.
For mesenchyme-free cultures, lungs were dissected and incubated in Collagenase/Dispase (1 mg/ml for each) for 10-15 minutes at room temperature. Epithelial tissue was removed by mechanical dissection, transferred to the Transwell® plates, and covered with 5-10 μl of 1:1 Matrigel:DME. After Matrigel was solidified, 400 μl media (DME/10% FCS/glutamine/pen-strep+200 ng/ml FGF7 (Life Technologies, Carlsbad, Calif.), FGF1 (Life Technologies), or EGF (Life Technologies)) was added to top and bottom wells. Erlotinib (Tarceva®, 1 μM hydrochloride salt; OSI Pharmaceuticals) or DMSO was added as indicated.
Embryonic explants were fixed in 4% paraformaldehyde, permeabilized in PBS with 2% BSA, 0.1% saponin or 0.1% Triton-X100. After washing, tissues were stained with anti-E-cadherin (Santa Cruz). […]
Homozygous germline mutations in LKB1 in mice are early embryonic lethal. […] During this time, the response of these tissues to growth factors was assessed.

B1: FGF-7: fibroblast growth factor FGF-7 (Life Technologies) (protein, UniProt P21781 32-194, looked up)
Fibroblast growth factor 7: CNDMTPEQMATNVNCSSPERHTRSYDYMEGGDIRVRRLFCRTQWYLRIDKRGKVKGTQEMKNNYNIMEIRTVAVGIVAIKGVESEFYLAMNKEGKLYAKKECNEDCNFKELILENHYNTYASAKWTHNGGEMFVALNQKGIPVRGKKTKKEQKTAHFLPMAIT
B1 was tested, and the “growth of mesenchyme free lung cultures” value was “robust growth”.
